These results are taken from publication PMC12369479, “A monomer–dimer switch modulates the activity of plant adenosine kinase” (Journal of Experimental Botany, 2025).

For test [1], the target named is Arabidopsis thaliana adenosine kinase 2 (6×His-AtADK2) (Arabidopsis thaliana) (UniProt Q9LZG0). Description: SEC; gel permeation chromatography of 6×His-AtADK2 at 1.2 mg/ml (preliminary results, Supplementary Fig. S10).
For test [2] the target is unchanged. Description: dynamic light scattering; AtADK2 at higher concentrations (5 mg/ml) (preliminary results).
The target in test [3] is Physcomitrella patens adenosine kinase 1 (PpADK1) (Physcomitrella patens) (UniProt O49923). Description: SEC; gel permeation chromatography of moss ADKs on Superdex 200 10/30 HR, 20 mM Tris-HCl pH 7.5, 100 mM NaCl; dimers from 0.01 mg/ml (0.25 µM), mainly dimeric above 0.3 mg/ml (7.7 µM); monomer to dimer. Background: SEC sorts molecules by how far they enter the pores of the column.

The target is the same in test [4].
For test [5] the target is unchanged. In words: dynamic light scattering; hydrodynamic diameter, 20 mM Tris-HCl pH 7.5, 1 mM MgCl2, apoform or with 2 mM ATP, 22 °C.
The target is the same in test [6]. Description: AUC; sedimentation velocity of PpADK1 at a higher concentration (>0.3 mg/ml), 20 mM Tris-HCl pH 7.5, 150 mM NaCl, 10 mM MgCl2, 10 µM DTT, 1% glycerol, 25 °C, c(s) analysis; monomer to dimer.
Test [7] shares this target. Description: SAXS; small-angle X-ray scattering, 50 mM Tris-HCl pH 7.5, three concentrations up to 5 mg/ml; Guinier analysis and Bayesian molecular weight estimate.
Test [8] addresses Physcomitrella patens adenosine kinase 2 (PpADK2) (Physcomitrella patens). In words: SEC; gel permeation chromatography of moss ADKs on Superdex 200 10/30 HR, 20 mM Tris-HCl pH 7.5, 100 mM NaCl; dimers from 0.01 mg/ml (0.25 µM), mainly dimeric above 0.3 mg/ml (7.7 µM); monomer to dimer.
For test [9] the target is unchanged.
Test [10] addresses Zea mays adenosine kinase 1 (ZmADK1) (Zea mays). In words: SEC; gel permeation chromatography of maize ADKs at higher concentrations (30 mg/ml), Supplementary Fig. S1.
Test [11] concerns the target Zea mays adenosine kinase 2 (ZmADK2) (Zea mays). The description is as above.
Test [12] has as its target Zea mays adenosine kinase 3 (ZmADK3) (Zea mays). The test is described as above.

One may read the stoichiometry N as a count of units in the complex or per binding partner. Take “Arabidopsis thaliana adenosine kinase 2 (6×His-AtADK2) (from UniProt Q9LZG0 1-345) (enzyme)”: the stoichiometry N in test [1] and in test [2] was 2 in each case.

In the case of “Physcomitrella patens adenosine kinase 1 (PpADK1) (from UniProt O49923 1-343) (enzyme)”, the stoichiometry N in test [3], in [5], in [6] and in [7] was 2 throughout. In addition, the specific activity with 100 µM Ado (coupled reaction with PK and LDH, 30 °C) (nmol s^–1 mg^–1) in [4] came out at 5.09.

In [8], “Physcomitrella patens adenosine kinase 2 (PpADK2) (enzyme)” registered a stoichiometry N of 2. Further, the specific activity with 100 µM Ado (coupled reaction with PK and LDH, 30 °C) (nmol s^–1 mg^–1) in [9] was found to be 4.7.

In turn, “Zea mays adenosine kinase 1 (ZmADK1) (enzyme)” came in with a stoichiometry N in test [10] of 2.

In turn, “Zea mays adenosine kinase 2 (ZmADK2) (enzyme)” gave a stoichiometry N in [11] of 2.

In test [12], “Zea mays adenosine kinase 3 (ZmADK3) (enzyme)” returned a stoichiometry N of 2.
